The text below walks through data of patent US20050255564A1, “Sulfated fucan” (TAKARA BIO INC, priority 2002, published 2005).

A short description of this data set: endo-type α-(1-4)L-fucosidase activity (HPLC of PA-labeled substrate). The class given is biochemical, Fucus vesiculosus. As to conditions: endo-type α-(1-4)L-fucosidase activity after each purification step, Table 14. The procedure:
The sulfated fucan oligosaccharide 1-(4) as described in Example 2 was used to establish a system for measuring an endo-type α-(1-4)L-fucosidase activity. First, the sulfated fucan oligosaccharide 1-(4) was fluorescently labeled at the reducing end with 2-aminopyridine according to the method as described in Example 2-(4). The endo-type α-(1-4)L-fucosidase activity was measured as follows.
Briefly, 75 μl of 100 mM sodium phosphate buffer (pH 7.0), 7.5 μl of a bovine serum albumin solution (2 mg/ml), 3.75 μl of 4 M sodium chloride, 50.25 μl of water, 6 μl of the sulfated fucan oligosaccharide 1-(4) fluorescently labeled at the reducing end with 2-aminopyridine (10 pmol/μl) and 7.5 μl of an endo-type α-(1-4)L-fucosidase solution were mixed together. After reacting at 30° C. for 3 hours, the reaction mixture was treated at 100° C. for 10 minutes and analyzed using HPLC. As controls, a reaction mixture obtained by a reaction in which the solvent for the endo-type α-(1-4)L-fucosidase was used in place of the enzyme solution and a reaction mixture obtained by a reaction in which water was used in place of the substrate were similarly analyzed. […]

Hydroxyapatite registered a Specific activity of 10.6 mU/mg and a Total activity of 219 mU.
